Laboratory results published in publication PMC2715020, “Identification, functional characterization and developmental regulation of sesquiterpene synthases from sunflower capitate glandular trichomes” (BMC Plant Biology, 2009).

B1: HaGAS2 (HaTPS1b; native, thioredoxin removed) (Helianthus annuus) (protein)
chain: MAAVGASATLLTNTKSAEEPVRPVANFPPSVWGDLFLSFSLDNSMMEEYAEAMEEPKGQVRKLILDPTMDSNKKLSLIYTVHRLGLTYMFFKEIEGQLDRLFKEFNLEDYVEVDLYTISTNFQAFRHLGYKLSCDVFNKFKNYDSNTFKESITSDVRGMLGLYESAQLRLKGEKILDEASAFTETKLKSLVKTLEGSLAQQVKQSLKRPFHQGMPMVEARLYFSNYQEECSRHDSLLKLAKLHFNYLQLQQKEELRIVSQWWKDMRFQETTPYIRDRVPEIYLWILGLYFEPRYSLARIIATKITLFLVVLDDTYDAYATIEEVRLLTDAINRWDIGAMSQIPEYIRPFYKILLDEYAELEKQLAKEGRANSVIASKEAFQDIARGYLEEAEWTNSGYVASFPEYMKNGLITSAYNVISKSALVGMGEIVSEDALAWYESHPQILQASELISRLQDDVMTYQFERERGQSATGVDAYIKTYGVSEKEAIDELKKMIENAWKEINEGCLKPREVSMDLLAPILNLARMIDVVYRYDDGFTFPGKTLKEYITLLFVGSSPM
notes: full length, 559 residues; expressed in E. coli from pET-32 EK/LIC, thioredoxin part removed by enterokinase
B2: HaGAS1 (HaTPS1a; native, thioredoxin removed) (Helianthus annuus) (protein)
chain: MAAVGASATPLTNTKSTAEPVRPVANFPPSVWGDLFLSFSLDKSIMEEYAEAMEEPKEQVRRLILDPTMDSNKKLSLIYTVHRLGLTYMFLKEIEAQLDRLFKEFNLEDYVELDLYTISINFQAFRHLGYKLPCDVFNKFKNDDSTTFKESITGDVRGMLGLYESAQLRLKGENILDEASAFAETKLKSLVNTLEGSLAQQVKQSLRRPFHQGMPMVEARLYFSNYQEECSAHDSILKLAKLHFNYLQLQQKEELRIVSQWWKDMRFQETTPYIRDRVPEIYLWILGLYFEPRYSLARIIATKITLFLVVLDDTYDAYATIEEIRLLTDAINRWDISAMNQIPEYIRPFYKILLDEYAELEKQLAKEGRANSVIASKEAFQDIARGYLEEAEWTNSGYVASFPEYMKNGLITSAYNVISKSALVGMGEIVSEDALVWYESHPQILQASELISRLQDDVMTYQFERERGQSATGVDSYIKTYGVSEKVAIDELKKMIENAWKEINEGCLKPREVSMDLLAPILNLARMIDVVYRYDDGFTFPGKTLKEYITLLFVGSSPM
notes: expressed in E. coli from pET-32 EK/LIC, thioredoxin part removed by enterokinase
B3: thioredoxin-HaGAS1 fusion protein (Helianthus annuus) (protein)
chain: B2 chain
notes: full length (559 residues) with uncleaved N-terminal thioredoxin and 6x-His tag (pET-32 EK/LIC), E. coli, Ni-NTA purified

Tests used:
HaCS (HaTPS2) [1] = target: T1, HaCS (HaTPS2) (Helianthus annuus, UniProt Q4U3F6); experiment: GC-MS of products after incubation with FDP; format: biochemical; parameters: gene CS; N-terminal thioredoxin fusion (E. coli, Ni-NTA; also S. cerevisiae EPY300), and unfused in yeast; settings: thioredoxin fusion, 50 μM FDP, MgCl2 and MnCl2, pH 7.0, 30°C
T1 sequence (Q4U3F6 1-555): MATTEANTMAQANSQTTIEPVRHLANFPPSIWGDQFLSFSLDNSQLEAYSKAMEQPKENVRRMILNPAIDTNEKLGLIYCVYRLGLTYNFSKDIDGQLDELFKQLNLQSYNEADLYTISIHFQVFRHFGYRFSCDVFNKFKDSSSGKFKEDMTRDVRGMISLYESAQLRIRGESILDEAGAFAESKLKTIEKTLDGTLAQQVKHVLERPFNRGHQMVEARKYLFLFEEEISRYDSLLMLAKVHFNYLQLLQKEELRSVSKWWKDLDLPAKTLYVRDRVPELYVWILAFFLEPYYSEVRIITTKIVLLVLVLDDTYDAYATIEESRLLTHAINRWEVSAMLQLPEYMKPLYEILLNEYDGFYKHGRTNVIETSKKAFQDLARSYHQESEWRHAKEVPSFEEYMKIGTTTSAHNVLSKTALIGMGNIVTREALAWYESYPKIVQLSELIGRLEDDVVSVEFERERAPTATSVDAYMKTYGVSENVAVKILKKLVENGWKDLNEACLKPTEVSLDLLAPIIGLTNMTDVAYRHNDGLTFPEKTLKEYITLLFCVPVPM

HaCS (HaTPS2) [2] = target: T1, HaCS (HaTPS2); experiment: GC-MS of dodecane overlay, expression in S. cerevisiae EPY300; format: cell-based; parameters: gene CS; settings: FDP-overproducing yeast; HaCS and thioredoxin-HaCS
purified protein = substrate: CC(C)=CCC/C(C)=C/CC/C(C)=C/CO[P@@](=O)(O)OP(=O)(O)O; experiment: purified protein; format: biochemical, Helianthus annuus; settings: 15 mM MOPSO, 10 mM MgCl2, 1 mM MnCl2, pH 7.0 (assay buffer), 30°C, FPP 0.125 to 30 μM

Row | Molecule | Km (purified protein) | also measured
1 | CC(C)=CCC/C(C)=C/CC/C(C)=C/COP(=O)(O)OP(=O)(O)O [FPP] | – | GC-MS of products after incubation with FDP (HaCS (HaTPS2) [1]): in vitro enzyme assay products with substrate FDP showed the presence of the parental mass
2 | CC1=C[C@@H]2C(=C(C)CC[C@H]2C(C)C)CC1 [δ-cadinene] | – | GC-MS of dodecane overlay, expression in S. cerevisiae EPY300 (HaCS (HaTPS2) [2]): One of the two main products was identified as δ-cadinene
3 | B1 | 0.74 µM | –
4 | B2 | 0.82 µM | –
5 | B3 | 1.06 µM | –
